This passage reports protein stability index results from the supplement of paper PMC10567573.

First the molecules themselves.
B1: DFFB (parent)
chain: KLNCDPSRIYKPQTRLKRKQPVRK
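Further: lentivirally expressed fusions sorted by FACS into six bins by GFP to DsRed ratio, PSI derived from sequencing read proportions per bin multiplied by bin number.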

Variants of B1 are the subject of this series. As to the kind of experiment: protein stability index of a GFP-peptide fusion (GPS, HEK-293T) (PSI 1-6); higher = more stable. The conditions noted are these: c terminus: a fixed tail appended.
Regarding ALNCDPSRIYKPQTRLKRKQPVRK, the protein stability index came to 4.14.

With LLNCDPSRIYKPQTRLKRKQPVRK, the protein stability index was found to be 3.8.

As for DLNCDPSRIYKPQTRLKRKQPVRK, the protein stability index worked out at 4.23.

With GLNCDPSRIYKPQTRLKRKQPVRK, the protein stability index was 3.13.

Turning to ELNCDPSRIYKPQTRLKRKQPVRK, the protein stability index came out at 3.42.

Take VLNCDPSRIYKPQTRLKRKQPVRK: the protein stability index was 3.57.

Regarding NLNCDPSRIYKPQTRLKRKQPVRK, the protein stability index worked out at 3.47.

Turning to KLNCDPSRIYKPQTRLKRKQPKRK, the protein stability index worked out at 3.14.

As for KLNCDPSRIYKPQTRLKRKQPNRK, the protein stability index came out at 3.62.

For KLNCDPSRIYKPQTRLKRKQPHRK, the protein stability index turned out to be 3.75.

KLNCDPSRIYKPQTRLKRKQPTRK: the protein stability index was 3.64.

On to KLNCDPSRIYKPQTRLKRKQPSRK, for which the protein stability index is 4.09.

Take KLNCDPSRIYKPQTRLKRKQPERK: the protein stability index worked out at 3.31.

On to KLNCIPSRIYKPQTRLKRKQPVRK, for which the protein stability index was 2.74.

For KLNCLPSRIYKPQTRLKRKQPVRK, the protein stability index worked out at 3.06.

For KLNCMPSRIYKPQTRLKRKQPVRK, the protein stability index was determined as 2.71.

Regarding KLNCAPSRIYKPQTRLKRKQPVRK, the protein stability index was determined as 3.46.

KLNCRPSRIYKPQTRLKRKQPVRK: the protein stability index was 3.34.

On to KLNCCPSRIYKPQTRLKRKQPVRK, for which the protein stability index came out at 4.16.

KLNCNPSRIYKPQTRLKRKQPVRK: the protein stability index turned out to be 3.96.

On to KLNCTPSRIYKPQTRLKRKQPVRK, for which the protein stability index came out at 2.92.

As for KLNCQPSRIYKPQTRLKRKQPVRK, the protein stability index is 3.32.

As to KLNCKPSRIYKPQTRLKRKQPVRK, the protein stability index stood at 3.8.

For the variant KLNFDPSRIYKPQTRLKRKQPVRK, the protein stability index came to 3.5.

Turning to KLNIDPSRIYKPQTRLKRKQPVRK, the protein stability index turned out to be 2.73.

Consider KLNPDPSRIYKPQTRLKRKQPVRK, for which the protein stability index stood at 4.03.

As to KLNGDPSRIYKPQTRLKRKQPVRK, the protein stability index was found to be 2.77.

For the variant KLNLDPSRIYKPQTRLKRKQPVRK, the protein stability index turned out to be 3.24.

For KLNRDPSRIYKPQTRLKRKQPVRK, the protein stability index came to 4.12.

In the case of KLNSDPSRIYKPQTRLKRKQPVRK, the protein stability index came out at 3.66.

For the variant KLNYDPSRIYKPQTRLKRKQPVRK, the protein stability index stood at 3.51.

For the variant KLNADPSRIYKPQTRLKRKQPVRK, the protein stability index was 3.75.

Take KLNCDPSRIYKPQTTLKRKQPVRK: the protein stability index came out at 3.76.

Turning to KLNCDPSRIYKPQTWLKRKQPVRK, the protein stability index is 3.02.

Turning to KLNCDPSRIYKPQTDLKRKQPVRK, the protein stability index stood at 3.09.

On to KLNCDPSRIYKPQTALKRKQPVRK, for which the protein stability index came to 2.82.

Take KLNCDPSRIYKPQTILKRKQPVRK: the protein stability index turned out to be 3.52.

With KLNCDPSRIYKPQTNLKRKQPVRK, the protein stability index amounted to 3.26.

As to KLNCDPSRIYKPQTMLKRKQPVRK, the protein stability index amounted to 3.21.

Regarding KLNCDPSRIYKPQTCLKRKQPVRK, the protein stability index was 3.24.

As to KLPCDPSRIYKPQTRLKRKQPVRK, the protein stability index turned out to be 3.97.

Consider KLMCDPSRIYKPQTRLKRKQPVRK, for which the protein stability index was determined as 3.19.

Take KLQCDPSRIYKPQTRLKRKQPVRK: the protein stability index worked out at 3.53.

With KLRCDPSRIYKPQTRLKRKQPVRK, the protein stability index worked out at 4.24.

Turning to KLKCDPSRIYKPQTRLKRKQPVRK, the protein stability index was found to be 4.07.

Take KLFCDPSRIYKPQTRLKRKQPVRK: the protein stability index stood at 3.03.

Take KLHCDPSRIYKPQTRLKRKQPVRK: the protein stability index was 3.75.

As to KLICDPSRIYKPQTRLKRKQPVRK, the protein stability index came to 2.89.

Regarding KLACDPSRIYKPQTRLKRKQPVRK, the protein stability index was 4.21.

On to KLDCDPSRIYKPQTRLKRKQPVRK, for which the protein stability index was found to be 4.07.

KLTCDPSRIYKPQTRLKRKQPVRK: the protein stability index turned out to be 3.96.

With KLNCDPSRRYKPQTRLKRKQPVRK, the protein stability index worked out at 2.91.

On to KLNCDPSRKYKPQTRLKRKQPVRK, for which the protein stability index is 3.84.

As for KLNCDPSRQYKPQTRLKRKQPVRK, the protein stability index stood at 3.9.

With KLNCDPSRVYKPQTRLKRKQPVRK, the protein stability index came to 3.52.

In the case of KLNCDPSRSYKPQTRLKRKQPVRK, the protein stability index is 2.51.

KLNCDPSRLYKPQTRLKRKQPVRK: the protein stability index is 3.81.

For KLNCDPSRDYKPQTRLKRKQPVRK, the protein stability index came out at 4.04.

In the case of KLNCDMSRIYKPQTRLKRKQPVRK, the protein stability index was determined as 3.16.

With KLNCDKSRIYKPQTRLKRKQPVRK, the protein stability index came out at 4.03.

Turning to KLNCDESRIYKPQTRLKRKQPVRK, the protein stability index came out at 4.13.

KLNCDLSRIYKPQTRLKRKQPVRK: the protein stability index amounted to 3.12.

With KLNCDRSRIYKPQTRLKRKQPVRK, the protein stability index is 3.7.

On to KLNCDTSRIYKPQTRLKRKQPVRK, for which the protein stability index is 3.56.

For the variant KLNCDDSRIYKPQTRLKRKQPVRK, the protein stability index is 4.05.

KLNCDSSRIYKPQTRLKRKQPVRK: the protein stability index is 3.71.

Regarding KLNCDISRIYKPQTRLKRKQPVRK, the protein stability index is 3.11.

With KANCDPSRIYKPQTRLKRKQPVRK, the protein stability index came to 4.27.

Turning to KVNCDPSRIYKPQTRLKRKQPVRK, the protein stability index stood at 4.01.

For KPNCDPSRIYKPQTRLKRKQPVRK, the protein stability index worked out at 4.57.

Turning to KTNCDPSRIYKPQTRLKRKQPVRK, the protein stability index is 4.12.

Take KMNCDPSRIYKPQTRLKRKQPVRK: the protein stability index was 4.09.

Regarding KQNCDPSRIYKPQTRLKRKQPVRK, the protein stability index came to 4.16.

Take KRNCDPSRIYKPQTRLKRKQPVRK: the protein stability index came out at 4.01.

For KYNCDPSRIYKPQTRLKRKQPVRK, the protein stability index came to 3.55.

Consider KKNCDPSRIYKPQTRLKRKQPVRK, for which the protein stability index was determined as 2.28.

As to KSNCDPSRIYKPQTRLKRKQPVRK, the protein stability index stood at 4.16.

On to KLNCDPSRIYKPQARLKRKQPVRK, for which the protein stability index worked out at 3.56.

Turning to KLNCDPSRIYKPQWRLKRKQPVRK, the protein stability index was determined as 3.95.

Consider KLNCDPSRIYKPQPRLKRKQPVRK, for which the protein stability index is 3.11.

In the case of KLNCDPSRIYKPQQRLKRKQPVRK, the protein stability index was 3.31.

For the variant KLNCDPSRIYKPQIRLKRKQPVRK, the protein stability index is 3.34.

In the case of KLNCDPSRIYKPQVRLKRKQPVRK, the protein stability index came to 3.51.

For KLNCDPSRIYKPQGRLKRKQPVRK, the protein stability index was 3.49.

On to KLNCDPSRIYKPQKRLKRKQPVRK, for which the protein stability index stood at 3.54.

For the variant KLNCDPSRIYKPQTRLKRKQPVPK, the protein stability index amounted to 3.84.

For the variant KLNCDPSRIYKPQTRLKRKQPVQK, the protein stability index worked out at 3.9.

KLNCDPSRIYKPQTRLKRKQPVHK: the protein stability index was 3.43.

KLNCDPSRIYKPQTRLKRKQPVSK: the protein stability index is 3.49.

For the variant KLNCDPSRIYKPQTRLKRKQPVWK, the protein stability index was 2.59.

On to KLNCDPSRIYKEQTRLKRKQPVRK, for which the protein stability index is 4.24.

Consider KLNCDPSRIYKWQTRLKRKQPVRK, for which the protein stability index was found to be 3.21.

As to KLNCDPSRIYKRQTRLKRKQPVRK, the protein stability index turned out to be 3.33.

Regarding KLNCDPSRIYKSQTRLKRKQPVRK, the protein stability index was determined as 3.89.
